Results from the nanobody polyreactivity screen of Harvey et al. (2022).

Assay: yeast display, Sf9 membrane polyspecificity reagent, FACS + sequencing; frameworks hold sequencing errors
Outline: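 In a synthetic yeast display library (Saccharomyces cerevisiae BJ5465), nanobody expression was induced with galactose for 36–48 hours. FACS gates were set low and high (top ~1%) using anti-HA fluorescence for expression and streptavidin fluorescence for binding of the Sf9 membrane reagent. Each polyreactivity label is drawn from the gate of origin.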

Row | Sequence | polyreactivity (PSR sort gate)
1 | QVQLVESGGGLVQAGGSLRLSCAASGFTFYSYAMGWYRQAPGKERELVAVISKRGGSTRYADSVKGRFTISRDNAKNTVYLQMNSLKPEDTAVYYCNADQHSITYNEFDYWGQGTQVTVSS | low polyreactivity
2 | QVQLVESGGGLVQAGGSLRLSCAASGITFAYYAMGWSRQAPGKERELVAAIRWSGGDTYYADSVKGRFTISRDNAKNTVYLQMNSLKPEDTAVYYCAADTTWGYDYWGQGTQVTVSS | low polyreactivity
3 | QVQLVESGGGLVQAGGSLRLSCAASGFTFYYYAMGWYRQATGKVRELVAAISARGGSTYYADSVKGRFTISRDNAKNTVYLQMNSLKPEDTAVYYCNAVTGHTSYEYDYWGQGTQVTVSS | high polyreactivity
4 | QVQLVESGGGLVQAGGSLRLSCAASGSIFSSYSMGWYRQAPGKERELVAAIDGSGGSTYADSVKGRFTISRDNAKNTVYLQMNSLKPEDTAVYYCAVDSFLVYSAVRPYDYWGHGTQVTVSS | low polyreactivity
5 | QVQLVESGGGLVQAGGSLRLSCAASGRNFPVNAMGWYRQAPGKERELVAAISTTGARTYYADSVKGRFTISRDNAKNTVYLQMNSLKPEDTAVYYCAAKQFSVTLSNYWGQGTQVTVSS | low polyreactivity
6 | QVQLEESGGGLVQAGGSLRLSCAASGYTFGTYTMGWYRQAPGKERELVAGIDSGGTTNYADSVKGRFTISRDNAKNTVYLQMNSLKPEDTAVYYCTAYHLLIFDYYLGLYYYRGNYYWGQGTQVTVSS | low polyreactivity
7 | QVQLVESGGGLVQAGGSLRLSCAASGRIFPYKAMGWYRPAPGKERELVAAITSSGGSTYYADSVKGRFTISRDNAKNTVYLQMNSLKPEDTAVYYCNKDIERYVRIYDSWGQGTQVTVSS | low polyreactivity
8 | QVKLVESGGGLVQAGGSLRLSCAASGSTFSSYAMGWYRQAPGKERELVAAISSSGGTSTYADSVKGRFTISRDNAKNTVYLQMNSLKPEDTAVYYCAARQDRLLRDYRHDYWGQGTQVTVSS | high polyreactivity
9 | QVQLVESGGGLVQAGGSLRLSCAASGFIFYYYAMGWYRQAPRKERELVAAISRSGGSTYYADSVKGRFTISRDNAKNTVYLQMNSLKPEDTAVYYCNTVPGTLYFRYDYWGQGTQVTVSS | high polyreactivity
10 | QVQLVESGGGLVQAGGSLRLSCAASGFTFGDNAMGWYRQAPGKERELVAAITSTGGSTNYADSVKGRFTISRDNAKNTVYLQINSLKPEDTAVYYCAAEWLYPHDGGYPRPMDYWGQGTQVTVSS | low polyreactivity
11 | QVQLVESGGCLVQAGGSLRLSCAASGYTIRYYSMGWYRQAPGKERELVAAISYSGGSTYYADSVKGRFTISRDNAKNTVYLQMNIMKPEDTAVYYCDAGFSLYLGFEYWGQGTQVTVSS | high polyreactivity
12 | QVQLVESGGGLVQAGGSLRISSAASGFIFSLNAMGWYRQAPGKERELVASITRSGTRTYYADSVKGRFTISRDNAKKTDFLQRNSLKPEATAVDYCAARTKRSYEYQAFYYWGQGTQVTVSS | high polyreactivity
13 | QVQLVESGGGLVQAGGSLRLSCAASGFTYIYYAMGWYRQAPGKERELVAAITSGGRTYYADSVKGRFTISRDNAKNTVYLQMNSLKPEDTAVYYCAKRFTLPLSEYDYWGQGTQVIVSS | high polyreactivity
14 | QVHLVESGGGLFQAGGSLRLSCAASGRTFYYNAMGWYRQAPGKEREFVAAITWSGTRTYYADSVKGRFTISRDNAKNTVYLQMNSLKPEDTAVYYCNARAGSGSRFGYWGEGTQVTVSS | high polyreactivity
15 | QVQLVESGVGLVQAGGSLRLSCASSGSIFGRYTMGWYRQAPGKERELVAAITLRGGSTYYADSVKGRFTISRDNAKNTVYLQMNSLNQEDSAVYYCANDGWKQSAYDYWGQGTQVTVSS | low polyreactivity
16 | QVQLVVSGPGLFQAGGSLRISCAPSGFIFYNYAMGWYRQAPGKERELVAAISRSGGSTYYADSVKGRFTISRDNAKNTVYLQMNSLKPEDTAVYYCKVGYGRGSTIGGYDYWGQGTQVTVSS | high polyreactivity
17 | QVQLVESGGGLVQAGGSLRLSCAASGFTFQRYTMGWYRQAPGKERELVAAITRSGGRTYYADSVKGRFTISRDNAKNTVYLQMNSLKPEDTAVYYCAVDYRTRGDYWGQGTQVTVSS | high polyreactivity
18 | QGQLVESGGGLVQAGGSLRLSCAASGSISGNYAMAWYRQAPGKERELVASIRYTGARTYYADSVKWRFTISRDNAKNTVYLQMNSLKPEDTAVYYCAADVKRDRVWGGDYWGQGTQVTVSS | low polyreactivity
19 | QVQLVESGGGLVQAGGSLRLSCAASGNTLNYYTMGWYRQAPGKERELVAAISSSGGSTYYADSVKGRFTISRDNAKNTVYLQMNSLKPEDTAVYYCAVLFYNNFGYWGQGTQVTVSS | low polyreactivity
20 | QVQVVESGGGLVQAGGSLRLSCAASGSTFSWYAIGWYIQAPGKDRELVARISSGDRTNYADSVKGRFTITRDNAKNNVYLEMNSQKPEDTAVYYCNADYGQPSYYDDGDYWGQGTQVTVSS | low polyreactivity
21 | QVQLVESGGGLVQAGGSLRLSCAASGLIFYSNAMGWYRQAPGKEREFVAAITRRGGSTYYADSVKGRFTISRDNAKNTVYLQMNSLKPEDTAVYYCNARYYHKRSTRVIFQYDYWGQGTQVTVSS | high polyreactivity

Row | Sequence | polyreactivity (PSR sort gate)
22 | QVQLVESGGGLVQAGGSLRLSCAASGFTFDNYVMGWYRQAPGKERELVAAISKSGTSTYYADSVKGRFTISRDNAKNTVYLQMNSLKPEDTAVYYCAAELPGYYYAYDYWGQGTQVTVSS | high polyreactivity
23 | QVQLVESGGGLVQAGGSLRLSCAASGSIFVQNAMGWYRQAPGKERELVAAINSGGSTYYADSVKGRFTISRDNANNTVYLQMNSLKPEDTAVYYCAADHNYYAYSYYYWGQGTQVTVSS | low polyreactivity
24 | QVQLVESGGGLVQAGGSLRLSCAASGRIFGLYAMGWYRQAPGKERELVAAITDSDGSTYYADSVKGRFTISRDNAKNTVYLQMNSLKPEDTAVYYCNKRLPLIRTSWAYDYWGQGTQVTVSS | low polyreactivity
25 | QVQLVESGGGLVQAGGSLRLSCAASGRIFRWYAMGWYRQAPGKERELVATISSTGGSTYYADSVKGRFTISRDNAKNTVYLQMNSLKPEDTAVYYCNALSFITITVYSEGDYWGQGTQVTVSS | low polyreactivity
26 | QVQLVESGGGLLQAGGSLRLSCAASGITFRFYAMGGYRQAPGKEREFVAAISCRGGRTYYADSVKGRFTISRDNAKNTVYIQMNSLKPEDTAVYYCAADFYYRTVATVTSVARYDYWGQGTQVTVSS | high polyreactivity
27 | QVQLVESWGGLVQAGGSLRLSCAASGSTIAYYVLGWYRQAPRKERELVAAINFSGDSTYYADSVKGRFTNSRDNAKNTVNLQMNSLKPEDTAVYYCAVDWGEYIDTSVKRDISYYWGQGTQVTVSS | low polyreactivity
28 | QVQLVESWGGLVQAGGSLRLSCAASGRTFFYYAMGWYRQAPWKERELVAAISKSGGRTYYADSVKGRFTISRDNAKNTVYLQMNSLKPEDTAVYYCATLAQWYDRELDYWGQGTQVTVSS | high polyreactivity
29 | QVQLVESGRGLVQAGGSLRLSCAASGIIFYENAMGWYRQAPGKERELVADITQSGGSTYYADSVKGRFTISRDNAKNTVYLQMNSLKPEDTAVYYCAADGYDPYGGLYDYWGQGTQVTVSS | low polyreactivity
30 | QVQLVESGGGLVQAGGSLRLSCAASGRISRSNTMGWYRQAPGKERELVAAISRGGGSTYYADSVKGRFTISRDNAKNTVYLQMKSLKPEDTAVYYCAKRSAITGYEYWGQGTQVTVSS | high polyreactivity
31 | QVQLVESGGGLVQSGGSLRLSCAASGRTFLTYVMGWYRPAPGKERELVAAITRGGRTNYAHSEKGRFTISRDNAKNTVDLQMTSLKPEDTAVYYCARDDTPRYDYWGQGTQVTVSS | low polyreactivity
32 | QVQLVESGGGLVQAGGSLRISCAASGNIFGIYTMGWYRQAPGKEREFFAVISLSGTSTYYADSVKGRFTISRDNAKNTVYLQMNSLKPEDTAVYYCNARTPHNKGRRRAYDYWGLGTQVTVSS | high polyreactivity
33 | QVQLVESGGGLVQAGGSLRLSCAASGRTFYDNAMGWYRQAPGKERELVAVISTSGARTYYADSVKGRFTISRDNAKNTVYLQMNSLKPEDTAVYYCAAGPALWQAYRMYYWGQGTQVTVSS | high polyreactivity
34 | QVQLVESGGGLVQAGGSLRLSCAASGRILSYYAMGWYRQAPGKERELVAAITRGGSTYYADSVKGRFTISRDNAKNTVYLQMNSLKPEDTAVYYCAARKKTTYRDWGRHDYWGQGTQVTVSS | high polyreactivity
35 | QVQLVESGGGLVQAGGSLRLSCAASGFIFSRNAMGWYRQAPGKERELVDRISRSGGRTYYADSVKGRFTISRDNAKNTVYLQMNSLKPEDTAVYYCATDHVRQSPYDYWGQGTQVTVSS | high polyreactivity
36 | QVQQVESGGGLVQAGVSLRLSCPASGLTFYTNPRGWYRQAPGKERELVAAIRRRGGRTYYADSVKGRFTISRDNATNSVYLQMNSLKPEDTAVSYCAADYSTLYNYDYWGQGTQVTVSS | low polyreactivity
37 | QVQLVESGGGLVQAGGSLRISCAASGITLYFYAMGWYRQAPGKERELVAGISGSVGSTHYADSVKGRFSISRDNAKNTVYLQMNSLKPEDTAVYYCAARALTWSRVPRYNYWGQGTQVTVSS | high polyreactivity
38 | QVQLVESGGGLVQAGGSLRLSCAASGRTFWVYAMGWYRQAPGKERELVAAISRSGVSTYYADSVKGRFTISRDNAKNTVYLQMNSLKPEDTAVYYCAAPLIYTPLKYHYWGQGTQVTVSS | low polyreactivity
39 | QVQLVESGGGLVQAGGSLRLSCAASGSTFRGYAMGWYRQAPGKEREFVAAITYTGSSTTYADSVKGRFTISRDNAKNTVYLQMNSLKPEDTAVYYCNKYTRFASSNMYYWGQGTQVTVSS | high polyreactivity
40 | QVQLVESGGGLVQAGGSLRLSCAASGSIFGRYAMGWYRQAPGKERELVAVITSGGSTNYADSVKGRFTISRDKAKNTVYLQMNSLKPEDTAVYYCAVRPYELHRLADQPGGDDYWGQGTQVTVSS | low polyreactivity
41 | QVQLVESGGGLVQAGGSLRLSCAASGRIFSSYVMGWYRQAPGKERELVAAIRWSGGSTYYADSVKGRFTISRDNAKNTVYLQMNSLKPEDTAVYYCAARHVLYGYYLYDYWGQGTQVTVSS | high polyreactivity
